From the supplement of paper PMC10598134
± gives the standard deviation.

Test: collision cross section of modified peptide (TIMS, N2, iRT-aligned); higher = larger / more extended gas-phase ion
Procedure: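 1/K0 was aligned run-wise to spiked iRT peptides and converted to CCS in N2 (Mason-Schamp). Values are the mean of 1-3 technical replicates for the most abundant feature at each charge state.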

[1] = charge state: 2, modification: Citrullination (R)
[2] = charge state: 2, modification: HexNAc (ST)
[3] = charge state: 2, modification: Nitro (Y)
[4] = charge state: 2, modification: Methyl (R)
[5] = charge state: 2, modification: Phospho (Y)
[6] = charge state: 2, modification: Acetyl (K)
[7] = charge state: 2, modification: Biotin
[8] = charge state: 2, modification: Butyryl
[9] = charge state: 2, modification: Crotonyl
[10] = charge state: 2, modification: Dimethyl (K)
[11] = charge state: 3, modification: Dimethyl (K)
[12] = charge state: 2, modification: Formyl
[13] = charge state: 2, modification: Glutarylation
[14] = charge state: 2, modification: GlyGly (K)
[15] = charge state: 2, modification: Malonyl
[16] = charge state: 2, modification: Methyl (K)
[17] = charge state: 3, modification: Methyl (K)

Sequence: APPIDRSILPTAPR [_APPIDR(Citrullination (R))SILPTAPR_]
- collision cross section [1]: 410.86 ± 0.21 Å²
- collision cross section (charge state: 3, modification: Citrullination (R)): 480.52 ± 0.41 Å²

Sequence: APPIDRSILPTAPR [_APPIDR(Methyl (R))SILPTAPR_]
- collision cross section (charge state: 3, modification: Methyl (R)): 489.12 ± 2.5 Å²

Sequence: APVGSVVSVPSQSSASSDK [_APVGSVVSVPSQS(HexNAc (ST))SASSDK_]
- collision cross section [2]: 464.2 ± 0.14 Å²

Sequence: AQLSQYFDAVK [_AQLSQY(Nitro (Y))FDAVK_]
- collision cross section [3]: 386.8 ± 0.8 Å²

Sequence: AQPQDSRGGSK [_AQPQDSR(Citrullination (R))GGSK_]
- collision cross section [1]: 347.45 ± 0.9 Å²

Sequence: AQPQDSRGGSK [_AQPQDSR(Methyl (R))GGSK_]
- collision cross section [4]: 351.96 ± 2.1 Å²

Sequence: AQPSASLGVGYR [_AQPSAS(HexNAc (ST))LGVGYR_]
- collision cross section [2]: 394.91 ± 0.63 Å²

Sequence: AQSYAQQLGR [_AQSY(Nitro (Y))AQQLGR_]
- collision cross section [3]: 354.17 ± 0.17 Å²

Sequence: AQSYAQQLGR [_AQSY(Phospho (Y))AQQLGR_]
- collision cross section [5]: 354.7 ± 0.065 Å²

Sequence: AQVLAGGRGK [_AQVLAGGR(Citrullination (R))GK_]
- collision cross section [1]: 333.54 ± 0.75 Å²

Sequence: AQVLAGGRGK [_AQVLAGGR(Methyl (R))GK_]
- collision cross section [4]: 352.61 ± 7.6 Å²

Sequence: ASAISIKLGSSK [_ASAISIK(Acetyl (K))LGSSK_]
- collision cross section [6]: 368.59 ± 0.51 Å²

Sequence: ASAISIKLGSSK [_ASAISIK(Biotin)LGSSK_]
- collision cross section [7]: 410.18 ± 1.1 Å²

Sequence: ASAISIKLGSSK [_ASAISIK(Butyryl)LGSSK_]
- collision cross section [8]: 375.24 ± 1.9 Å²

Sequence: ASAISIKLGSSK [_ASAISIK(Crotonyl)LGSSK_]
- collision cross section [9]: 374.63 ± 0.89 Å²

Sequence: ASAISIKLGSSK [_ASAISIK(Dimethyl (K))LGSSK_]
- collision cross section [10]: 373.07 ± 0.36 Å²
- collision cross section [11]: 447.62 Å²

Sequence: ASAISIKLGSSK [_ASAISIK(Formyl)LGSSK_]
- collision cross section [12]: 364.8 ± 0.89 Å²

Sequence: ASAISIKLGSSK [_ASAISIK(Gluratylation)LGSSK_]
- collision cross section [13]: 376.68 ± 0.1 Å²

Sequence: ASAISIKLGSSK [_ASAISIK(GlyGly (K))LGSSK_]
- collision cross section [14]: 390.99 ± 1 Å²

Sequence: ASAISIKLGSSK [_ASAISIK(Malonyl)LGSSK_]
- collision cross section [15]: 370.34 ± 0.77 Å²

Sequence: ASAISIKLGSSK [_ASAISIK(Methyl (K))LGSSK_]
- collision cross section [16]: 369.46 ± 0.48 Å²
- collision cross section [17]: 438.5 ± 5.9 Å²

Sequence: ASAISIKLGSSK [_ASAISIK(Succinyl)LGSSK_]
- collision cross section (charge state: 2, modification: Succinyl): 372.2 ± 0.24 Å²

Sequence: ASAISIKLGSSK [_ASAISIK(Trimethyl (K))LGSSK_]
- collision cross section (charge state: 2, modification: Trimethyl (K)): 386.31 ± 1.1 Å²
- collision cross section (charge state: 3, modification: Trimethyl (K)): 448.52 ± 3.3 Å²

Sequence: ASAISIKLGSSK [_ASAISIK(hydroxyisobutyryl)LGSSK_]
- collision cross section (charge state: 2, modification: hydroxyisobutyryl): 374.73 ± 0.8 Å²

Sequence: ASCLYGQLPK [_ASCLY(Nitro (Y))GQLPK_]
- collision cross section [3]: 365.43 ± 2.1 Å²

Sequence: ASCLYGQLPK [_ASCLY(Phospho (Y))GQLPK_]
- collision cross section [5]: 373.97 ± 0.65 Å²

Sequence: ASDTSSETVFGKR [_ASDTSSETVFGK(Acetyl (K))R_]
- collision cross section [6]: 397.17 ± 0.32 Å²
- collision cross section (charge state: 3, modification: Acetyl (K)): 476.65 ± 0.87 Å²

Sequence: ASDTSSETVFGKR [_ASDTSSETVFGK(Biotin)R_]
- collision cross section [7]: 406.15 Å²

Sequence: ASDTSSETVFGKR [_ASDTSSETVFGK(Butyryl)R_]
- collision cross section [8]: 403.53 ± 0.74 Å²
- collision cross section (charge state: 3, modification: Butyryl): 479.86 ± 1.9 Å²

Sequence: ASDTSSETVFGKR [_ASDTSSETVFGK(Crotonyl)R_]
- collision cross section [9]: 402.93 ± 0.81 Å²
- collision cross section (charge state: 3, modification: Crotonyl): 478.92 ± 1.3 Å²

Sequence: ASDTSSETVFGKR [_ASDTSSETVFGK(Dimethyl (K))R_]
- collision cross section [10]: 409.3 ± 1.1 Å²
- collision cross section [11]: 469.84 ± 1.6 Å²

Sequence: ASDTSSETVFGKR [_ASDTSSETVFGK(Formyl)R_]
- collision cross section [12]: 390.61 ± 0.41 Å²

Sequence: ASDTSSETVFGKR [_ASDTSSETVFGK(Gluratylation)R_]
- collision cross section [13]: 400.66 ± 0.51 Å²
- collision cross section (charge state: 3, modification: Glutarylation): 483.77 ± 1.7 Å²

Sequence: ASDTSSETVFGKR [_ASDTSSETVFGK(GlyGly (K))R_]
- collision cross section [14]: 414.9 ± 1.4 Å²
- collision cross section (charge state: 3, modification: GlyGly (K)): 487.28 ± 2 Å²

Sequence: ASDTSSETVFGKR [_ASDTSSETVFGK(Malonyl)R_]
- collision cross section [15]: 387.3 ± 0.61 Å²

Sequence: ASDTSSETVFGKR [_ASDTSSETVFGK(Methyl (K))R_]
- collision cross section [16]: 406.57 ± 1.3 Å²
- collision cross section [17]: 477.14 ± 3.8 Å²

Sequence: ASDTSSETVFGKR [_ASDTSSETVFGK(Propionyl)R_]
- collision cross section (charge state: 2, modification: Propionyl): 398.28 ± 0.65 Å²
- collision cross section (charge state: 3, modification: Propionyl): 481.99 Å²
